Assay results: patent US9822156B2, “Amyloid beta expression constructs and uses therefor” (Whitehead Institute for Biomedical Research, priority 2014, dated 2017)

Tests used:
293T cells = assay: TOXILIGHT cytotoxicity assay in stable doxycycline-inducible poly-Aβ 293T cell lines; type: cell-based; conditions: 72-96 hours following doxycycline induction
Text: Similar to the poly-Aβ (Aβ40 or Aβ42_1X/4X/6X/8X) expression constructs in yeast (see Example 1), a poly-Aβ toxicity model was developed in mammalian cells. Stable cell lines with chromosomally-integrated tetracycline (doxycycline)-inducible […] transgenes (Aβ42-4X, Aβ42-6X, Aβ40-4X, Aβ40-6X and Aβ42-Arctic-4X) linked to an N-terminal insulin signal peptide were generated (FIGS. 13A-13B). These expression constructs were generated using the pLix402 lentiviral plasmid (FIG. 12). The poly-Aβ constructs were individually transfected into 293T cells along with the lentiviral packaging plasmid psPAX and the viral envelope-expressing plasmid mMD2.G using LIPOFECTAMINE® 2000 (Invitrogen) transfection reagent to generate lentivirus containing the poly-Aβ transgene. The virus was harvested from the supernatant of transfected 293T cells 2 and 3 days post-transfection and subsequently purified and concentrated using the LENTI-X™ Maxi Purification kit (Clontech) according to the manufacturer's instructions.
To generate stable cells harboring the expression transgene for the poly-Aβ constructs, 293T cells were infected using POLYBRENE® infection reagent (Sigma Aldrich), which is used to introduce retroviral vectors into mammalian cells. Infected cells were then selected using puromycin (2-10 μg/ml). Infected cells harboring the transgene survive this selection pressure whereas the control cells without the transgene die in 2-3 days. Aliquots of the selected cells were frozen in liquid nitrogen or maintained and propagated for further applications.
Expression of Aβ peptide from these stable cell lines was measured in the culture supernatant 72-96 hours following doxycycline induction (FIG. 13D). Toxicity was measured 72-96 hours following doxycycline induction using a TOXILIGHT™ cytotoxicity assay (Lonza) as described in Example 2.

Yeast cells = assay: Yeast growth spotting assay of Aβ expression constructs on glucose or galactose media; type: cell-based; conditions: galactose-induced expression from 2μ high-copy plasmid pAG425Gal
Text: The Aβ sequence was codon optimized for expression in yeast. The Aβ expression construct consists of attB Gateway flanking regions at the 5′ and 3′ ends (nucleotides […] (SEQ ID NO:84) and […] (SEQ ID NO:85), respectively) for Gateway cloning of MatαPrepro-Aβ42 sequence. The entire construct was synthesized into pUC57-Kan plasmid and cloned into the Gateway entry vector pDONR221. These constructs were then transferred into the pAG425Galexpression vector by Gateway LR cloning (Alberti et al., “A suite of Gateway cloning vectors for high throughput genetic analysis in Saccharomyces cerevisiae,” Yeast 24:913 (2007)). The GAL1 promoter enables expression of Aβ fusion transgenes under galactose-inducible conditions. The vector has an ampicillin resistant gene for amplification of the vector in E. coli and leucine auxotrophic marker (LEU2) for selection of transformed yeast cells on media lacking leucine (FIG. 2).
Yeast cells transformed with either an expression vector containing galactose-inducible green fluorescent protein (GFP) or a galactose-inducible expression plasmid encoding a yeast mating factor alpha signal sequence/human amyloid beta 1-42 (Aβ42) or 1-40 (Aβ40) or scrambled Aβ42 fusion polypeptide were grown on glucose or galactose containing synthetic media and growth was assessed. Transformed cells were selected in medium lacking leucine. Individual transformants were grown overnight in complete synthetic medium (CSM) lacking leucine with 2% raffinose as the carbon source. Cell concentrations (OD600) were adjusted in a 96-well plate to OD 0.5 or 1. Cells were then 5-fold serially diluted and spotted on SD media containing glucose (uninduced) and galactose (induced). Plates were incubated at 30° C. for 2 days (glucose) or 3 to 4 days (galactose).

Rat cortical neurons = assay: Fluorescence microscopy of neuronal survival and morphology after lentiviral Aβ infection (GFP live imaging, Map2 staining); type: cell-based; conditions: for neuronal survival and morphology, GFP live neuron imaging: 21 days after initial infection, identical MOI; for neuronal survival and morphology, Map2 immunostaining: twenty-one days post-infection
Experimental: Rat cortical neurons were infected with a doxycycline-inducible lentiviral GFP construct. Two days post-infection, the cells were infected again with neuron-specific (synapsin promoter) lentiviral Aβ constructs (i.e., Aβ40, Aβ42, and various mutations). The doubly-infected cells were treated with doxycycline 7 days post-infection to express GFP. After 21 days of the initial infection, live neurons were visualized using fluorescence microscopy to observe the effect of different Aβ variants on neuronal survival and morphology by visualizing neurons expressing GFP in presence of Aβ expressed from the transgenes.
Similar observations were also made by immunohistochemical analysis of rat cortical neurons infected with neuron-specific (synapsin promoter) lentiviral Aβ constructs. Twenty-one days post-infection, the neurons were stained with a neuron-specific microtubule-associated protein 2 (Map2) primary antibody (rabbit polyclonal, Millipore) and ALEXA FLUOR® (red fluorophore conjugated) secondary antibody (goat anti-rabbit polyclonal, Life Technologies). Neuronal cells and morphology were visualized to observe the effect of different Aβ mutations using fluorescence microscopy.

[1] = tested on: Rat embryonic cortical neurons; conditions: lentiviral infection, synapsin promoter, secretory pathway expression
Text: Rat embryonic cortical neurons were used for expressing Aβ. For generating lentiviral constructs, an expression vector was used with the human synapsin 1 promoter upstream of the inserted insulin signal peptide-Aβ fusion polypeptide transgene (FIG. 9). The encoded fusion polypeptide is processed in the secretory pathway of the neuron, releasing Aβ in the extracellular milieu.
The pLV-Aβ constructs along with the psPAX2 packaging vector and pMD2.G envelope vector were transfected in 293T cells using LIPOFECTAMINE® 2000 (Invitrogen) transfection reagent following the manufacture's instruction to generate lentivirus containing the Aβ transgene. The virus was purified using LENTI-X™ Maxi Purification Kit (Clontech) from the supernatant of the transfected 293T cells according to the protocol provided by the manufacturer. Viral titer were determined by using Lentivirus-Associated p24 ELISA Kit (Cell BioLabs).
Rat embryonic cortices were dissected out of embryonic (E18) rat brains, and neurons were enriched in adherent monolayer culture. These cortical neurons were infected with lentiviral preparation harboring an Aβ transgene or a control gene (RFP in the same vector backbone). Infected cultures were harvested to quantify the amount of Aβ in the supernatant and cell lysate by Aβ-specific ELISA 21 days after infection (FIG. 10A). Corresponding cytotoxicity of the infected neurons was measured by quantifying ATP levels using […]™ assay for cell viability (Lonza).

Molecule: AB40-6X: doxycycline-inducible construct, insulin signal peptide and six copies of Aβ40, SEQ ID NO:43
- Aβ peptide-mediated cytotoxic effect (adenylate kinase release), rank order (293T cells): Aβ42-6X≧Aβ42-Arctic-4X≧Aβ42-4X≧AB40-6X≧Aβ40-4X

Molecule: Aβ40-4X: doxycycline-inducible construct, insulin signal peptide and four copies of Aβ40, SEQ ID NO:41
- Aβ peptide-mediated cytotoxic effect (adenylate kinase release), rank order (293T cells): Aβ42-6X≧Aβ42-Arctic-4X≧Aβ42-4X≧AB40-6X≧Aβ40-4X

Molecule: Aβ42 (1X): yeast expression construct, mating factor alpha prepro sequence with one copy of Aβ42, SEQ ID NO:51
- toxicity (inhibition of yeast cell growth) upon expression (Yeast cells): not toxic

Molecule: Aβ42-6X: doxycycline-inducible construct, insulin signal peptide and six copies of Aβ42, SEQ ID NO:39
- Aβ peptide-mediated cytotoxic effect (adenylate kinase release), rank order (293T cells): Aβ42-6X≧Aβ42-Arctic-4X≧Aβ42-4X≧AB40-6X≧Aβ40-4X

Molecule: Aβ42_I31E: lentiviral construct, insulin signal peptide fused to Aβ42 I31E, SEQ ID NO:21
- neuronal survival and morphology, GFP live neuron imaging (Rat cortical neurons): reduced cytotoxicity and no significant morphological distortions of the neurons and neurites
- neuronal survival and morphology, Map2 immunostaining (Rat cortical neurons): reduced cytotoxicity and had no significant effects on the neuronal morphology
- cytotoxicity (ATP levels) [1]: less cytotoxic effects compared to either the wild-type human Aβ42 or the Arctic variation of human Aβ42

B1: Arctic: yeast construct, four copies of Aβ42 E22G, SEQ ID NO:75 (protein)
chain: MRFPSIFTAVLFAASSALAAPVNTTTEDETAQIPAEAVIGYLDLEGDFDVAVLPFSNSTNNGLLFINTTIASIAAKEEGVSLDKREAEADAEFRHDSGYEVHHQKLVFFAGDVGSNKGAIIGLMVGGVVIAKREAEAEADAEFRHDSGYEVHHQKLVFFAGDVGSNKGAIIGLMVGGVVIAKREADAEADAEFRHDSGYEVHHQKLVFFAGDVGSNKGAIIGLMVGGVVIAKREADAEADAEFRHDSGYEVHHQKLVFFAGDVGSNKGAIIGLMVGGVVIA
- toxicity (inhibition of yeast cell growth) upon expression (Yeast cells): profound toxicity

B2: Arctic_I31E: yeast construct, four copies of Aβ42 E22G/I31E, SEQ ID NO:77 (protein)
chain: MRFPSIFTAVLFAASSALAAPVNTTTEDETAQIPAEAVIGYLDLEGDFDVAVLPFSNSTNNGLLFINTTIASIAAKEEGVSLDKREAEADAEFRHDSGYEVHHQKLVFFAGDVGSNKGAEIGLMVGGVVIAKREAEAEADAEFRHDSGYEVHHQKLVFFAGDVGSNKGAEIGLMVGGVVIAKREADAEADAEFRHDSGYEVHHQKLVFFAGDVGSNKGAEIGLMVGGVVIAKREADAEADAEFRHDSGYEVHHQKLVFFAGDVGSNKGAEIGLMVGGVVIA
- toxicity (inhibition of yeast cell growth) upon expression (Yeast cells): significantly lower amount of toxicity

B3: Dutch: yeast construct, four copies of Aβ42 E22Q, SEQ ID NO:71 (protein)
chain: MRFPSIFTAVLFAASSALAAPVNTTTEDETAQIPAEAVIGYLDLEGDFDVAVLPFSNSTNNGLLFINTTIASIAAKEEGVSLDKREAEADAEFRHDSGYEVHHQKLVFFAQDVGSNKGAIIGLMVGGVVIAKREAEAEADAEFRHDSGYEVHHQKLVFFAQDVGSNKGAIIGLMVGGVVIAKREADAEADAEFRHDSGYEVHHQKLVFFAQDVGSNKGAIIGLMVGGVVIAKREADAEADAEFRHDSGYEVHHQKLVFFAQDVGSNKGAIIGLMVGGVVIA
- toxicity (inhibition of yeast cell growth) upon expression (Yeast cells): profound toxicity

B4: Aβ42_Arctic (E22G): lentiviral construct, insulin signal peptide fused to Aβ42 E22G, SEQ ID NO:17 (protein)
chain: MALWMRLLPLLALLALWGPDPAAADAEFRHDSGYEVHHQKLVFFAGDVGSNKGAIIGLMVGGVVIA
- neuronal survival and morphology, GFP live neuron imaging (Rat cortical neurons): caused neuronal death and adversely affected neurite outgrowth and structures
- neuronal survival and morphology, Map2 immunostaining (Rat cortical neurons): profound cytotoxicity, resulting in massive neuronal loss and distorted neurite structures and outgrowth
- cytotoxicity (ATP levels) [1]: more toxic effect compared to the wild-type human Aβ42

B5: Aβ42_Arc/I31E: lentiviral construct, insulin signal peptide fused to Aβ42 E22G/I31E, SEQ ID NO:23 (protein)
chain: MALWMRLLPLLALLALWGPDPAAADAEFRHDSGYEVHHQKLVFFAGDVGSNKGAEIGLMVGGVVIA
- neuronal survival and morphology, GFP live neuron imaging (Rat cortical neurons): reduced cytotoxicity and no significant morphological distortions of the neurons and neurites
- neuronal survival and morphology, Map2 immunostaining (Rat cortical neurons): reduced cytotoxicity and had no significant effects on the neuronal morphology
- cytotoxicity (ATP levels) [1]: less cytotoxic effects compared to either the wild-type human Aβ42 or the Arctic variation of human Aβ42

B6: E22_deletion: yeast construct, four copies of Aβ42 with E22 deleted, SEQ ID NO:79 (protein)
chain: MRFPSIFTAVLFAASSALAAPVNTTTEDETAQIPAEAVIGYLDLEGDFDVAVLPFSNSTNNGLLFINTTIASIAAKEEGVSLDKREAEADAEFRHDSGYEVHHQKLVFFADVGSNKGAIIGLMVGGVVIAKREAEAEADAEFRHDSGYEVHHQKLVFFADVGSNKGAIIGLMVGGVVIAKREADAEADAEFRHDSGYEVHHQKLVFFADVGSNKGAIIGLMVGGVVIAKREADAEADAEFRHDSGYEVHHQKLVFFADVGSNKGAIIGLMVGGVVIA
- toxicity (inhibition of yeast cell growth) upon expression (Yeast cells): profound toxicity
